The source of these data is patent publication US20140302035A1 (MERRIMACK PHARMACEUTICALS, published 2014).

By Kd is commonly meant a measure of binding affinity in units of concentration. The term koff denotes the first-order rate constant of dissociation.

The target in this experiment is T1, Human EpCAM-Fc-his tagged (human).
T1 construct: also called Recombinant polyhistidine-tagged EpCAM-Fc; recombinant EpCAM
Put plainly: BLI (ForteBio Octet), antibody loaded on Protein A tips, recombinant polyhistidine-tagged EpCAM-Fc in solution, 1:1 model. On the procedure: For Octet analysis, all reagents and samples are brought to room temperature. Protein A sensor tips (ForteBio, #18-5010) are hydrated for 10 minutes in 1×PBS. Assay steps include: 1-2 minutes of equilibration in 1×PBS, 4 minutes of antibody loading (concentration of 50 μg/ml in 1×PBS), 1-2 minutes of baseline stabilization, 4 minutes of antibody:antigen association, and 4 minutes of antibody:antigen dissociation. 1×PBS is used as the matrix throughout. Data are analyzed with Octet Data Analysis software, processed, and fit to a 1:1 binding model to determine kinetic parameters (Kd, kₒₙ and kdiss).
Table A-2 describes approximate EpCAM binding affinity and dissociation rate as determined for Ab#1, Ab#2, Ab#3, Ab#4, Ab#5, Ab#6, Ab#7, Ab#8, Ab#9, Ab#10, Ab#11, Ab#12, and Ab#13.
For orientation: In BLI a coated tip is dipped into the sample, and binding shifts an interference pattern.

T1 sequence (chain, as listed by the source): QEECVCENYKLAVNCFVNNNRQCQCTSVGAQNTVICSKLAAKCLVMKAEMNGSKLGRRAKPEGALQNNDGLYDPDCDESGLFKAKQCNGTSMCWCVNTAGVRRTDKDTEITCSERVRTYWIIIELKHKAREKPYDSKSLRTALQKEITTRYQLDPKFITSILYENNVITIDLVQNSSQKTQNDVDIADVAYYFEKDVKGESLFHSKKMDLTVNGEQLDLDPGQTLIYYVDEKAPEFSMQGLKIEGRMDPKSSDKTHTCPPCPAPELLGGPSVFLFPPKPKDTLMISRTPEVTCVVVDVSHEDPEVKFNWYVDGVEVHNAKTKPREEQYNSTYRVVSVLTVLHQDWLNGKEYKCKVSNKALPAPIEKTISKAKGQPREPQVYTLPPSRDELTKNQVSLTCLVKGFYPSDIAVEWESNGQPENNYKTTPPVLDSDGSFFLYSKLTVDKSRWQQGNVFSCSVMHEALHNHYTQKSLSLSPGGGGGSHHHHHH

B1: Ab#3 (bispecific antibody, human IgG1, kappa)
heavy: QLQLQESGPGLVKPSETLSLTCTVSGGSISSSVYYWSWIRQPPGKGLEWIGVIYPSGNTYYSPSLKSRVTISVDTSKNQFSLKLSSVTAADTAVYYCARTIYDLFDIWGQGTMVTVSSASTKGPSVFPLAPSSKSTSGGTAALGCLVKDYFPEPVTVSWNSGALTSGVHTFPAVLQSSGLYSLSSVVTVPSSSLGTQTYICNVNHKPSNTKVDKKVEPKSCDKTHTCPSCPAPEFLGGPSVFLFPPKPKDTLMISRTPEVTCVVVDVSQEDPEVQFNWYVDGVEVHNAKTKPREEQFNSKYRVVSVLTVLHQDWLNGKEYKCKVSNKGLPSSIEKTISKAKGQPREPQVYTLPPSREEMTKNQVSLSCAVKGFYPSDIAVEWESNGQPENNYKTTPPVLDSDGSFFLVSKLTVDKSRWQQGNVFSCSVMHEALHNHYTQKSLSLSKSCDKTGGGGSGGGGSGGGGSGGGGSGGGGSGGGGSGGGGSGGGGSCPSCPAPEFLGGPSVFLFPPKPKDTLMISRTPEVTCVVVDVSQEDPEVQFNWYVDGVEVHNAKTKPREEQFNSDYRVVSVLTVLHQDWLNGKEYKCKVSNKGLPSSIEKTISKAKGQPREPQVYTLPPSREEMTKNQVSLWCLVKGFYPSDIAVEWESNGQPENNYKTTPPVLDSDGSFFLYSKLTVDKSRWQQGNVFSCSVMHEALHNHYTQKSLSLSGECGGGGSGGGGSQVQLVQSGSELKKPGESVKVSCKASGYTFTNYGMNWVRQAPGQGLKWMGWINTYTGESTYADDFKGRFAFSLDTSASTAYLQISSLKAEDTAVYFCARFAIKGDYWGQGTLVTVSSASTGGGGSGGGGSGGGGSGGGGSDIVMTQSPLSLPVTPGEPASISCRSTKSLLHSDGITYLYWYLQKPGQSPQLLIYQLSNLASGVPDRFSSSGSGTDFTLKISRVEAEDEGVYYCAQNLEIPRTFGQGTKVEIK
light: DIQMTQSPSSVSASVGDRVTITCRASQGISSWLAWYQQKPGKAPKLLIYAASSLQSGVPSRFSGSGSGTDFTLTISSLQPEDFATYYCLQANSFPPTFGGGTKVEIKRTVAAPSVFIFPPSDEQLKSGTASVVCLLNNFYPREAKVQWKVDNALQSGNSQESVTEQDSKDSTYSLSSTLTLSKADYEKHKVYACEVTHQGLSSPVTKSFNRGEC
notes: Anti-c-Met Fab / tandem Fc / anti-EpCAM scFv TFcBA; also called Antibody #3
Regarding B1, the Kd was determined as 17 nM and the koff is 0.00174 s⁻¹.

B2: Ab#6 (bispecific antibody, human IgG1, kappa)
heavy: QLQLQESGPGLVKPSETLSLTCTVSGGSISSSVYYWSWIRQPPGKGLEWIGVIYPSGNTYYSPSLKSRVTISVDTSKNQFSLKLSSVTAADTAVYYCARTIYDLFDIWGQGTMVTVSSASTKGPSVFPLAPSSKSTSGGTAALGCLVKDYFPEPVTVSWNSGALTSGVHTFPAVLQSSGLYSLSSVVTVPSSSLGTQTYICNVNHKPSNTKVDKKVEPKSCDKTHTCPSCPAPEFLGGPSVFLFPPKPKDTLMISRTPEVTCVVVDVSQEDPEVQFNWYVDGVEVHNAKTKPREEQFNSKYRVVSVLTVLHQDWLNGKEYKCKVSNKGLPSSIEKTISKAKGQPREPQVYTLPPSREEMTKNQVSLSCAVKGFYPSDIAVEWESNGQPENNYKTTPPVLDSDGSFFLVSKLTVDKSRWQQGNVFSCSVMHEALHNHYTQKSLSLSKSCDKTGGGGSGGGGSGGGGSGGGGSGGGGSGGGGSGGGGSGGGGSCPSCPAPEFLGGPSVFLFPPKPKDTLMISRTPEVTCVVVDVSQEDPEVQFNWYVDGVEVHNAKTKPREEQFNSDYRVVSVLTVLHQDWLNGKEYKCKVSNKGLPSSIEKTISKAKGQPREPQVYTLPPSREEMTKNQVSLWCLVKGFYPSDIAVEWESNGQPENNYKTTPPVLDSDGSFFLYSKLTVDKSRWQQGNVFSCSVMHEALHNHYTQKSLSLSGECGGGGSGGGGSDIVMTQSPLSLPVTPGEPASISCRSTKSLLHSDGITYLYWYLQKPGQSPQLLIYQLSNLASGVPDRFSSSGSGTDFTLKISRVEAEDEGVYYCAQNLEIPRTFGGGTKLEIKRTGGGGSGGGGSGGGGSGGGGSQVQLVQSGAEVKKPGESVKISCKASGYTFTNYGMNWVRQAPGQGLKWMGWINTYTGESTYADDFKGRFAFSLDTSASTAYLQLSSLRSEDTAVYFCARFAIKGDYWGQGTLVTVSS
light: DIQMTQSPSSVSASVGDRVTITCRASQGISSWLAWYQQKPGKAPKLLIYAASSLQSGVPSRFSGSGSGTDFTLTISSLQPEDFATYYCLQANSFPPTFGGGTKVEIKRTVAAPSVFIFPPSDEQLKSGTASVVCLLNNFYPREAKVQWKVDNALQSGNSQESVTEQDSKDSTYSLSSTLTLSKADYEKHKVYACEVTHQGLSSPVTKSFNRGEC
notes: Anti-c-Met Fab / tandem Fc / anti-EpCAM scFv TFcBA; also called Antibody #6
In the case of B2, the Kd came out at 11.2 nM and the koff was 0.00122 s⁻¹.

B3: Ab#4 (bispecific antibody, human IgG1, kappa)
heavy: QLQLQESGPGLVKPSETLSLTCTVSGGSISSSVYYWSWIRQPPGKGLEWIGVIYPSGNTYYSPSLKSRVTISVDTSKNQFSLKLSSVTAADTAVYYCARTIYDLFDIWGQGTMVTVSSASTKGPSVFPLAPSSKSTSGGTAALGCLVKDYFPEPVTVSWNSGALTSGVHTFPAVLQSSGLYSLSSVVTVPSSSLGTQTYICNVNHKPSNTKVDKKVEPKSCDKTHTCPSCPAPEFLGGPSVFLFPPKPKDTLMISRTPEVTCVVVDVSQEDPEVQFNWYVDGVEVHNAKTKPREEQFNSKYRVVSVLTVLHQDWLNGKEYKCKVSNKGLPSSIEKTISKAKGQPREPQVYTLPPSREEMTKNQVSLSCAVKGFYPSDIAVEWESNGQPENNYKTTPPVLDSDGSFFLVSKLTVDKSRWQQGNVFSCSVMHEALHNHYTQKSLSLSKSCDKTGGGGSGGGGSGGGGSGGGGSGGGGSGGGGSGGGGSGGGGSCPSCPAPEFLGGPSVFLFPPKPKDTLMISRTPEVTCVVVDVSQEDPEVQFNWYVDGVEVHNAKTKPREEQFNSDYRVVSVLTVLHQDWLNGKEYKCKVSNKGLPSSIEKTISKAKGQPREPQVYTLPPSREEMTKNQVSLWCLVKGFYPSDIAVEWESNGQPENNYKTTPPVLDSDGSFFLYSKLTVDKSRWQQGNVFSCSVMHEALHNHYTQKSLSLSGECGGGGSGGGGSDIVMTQSPLSLPVTPGEPASISCRSTKSLLHSDGITYLYWYLQKPGQSPQLLIYQLSNLASGVPDRFSSSGSGTDFTLKISRVEAEDEGVYYCAQNLEIPRTFGQGTKVEIKRTGGGGSGGGGSGGGGSGGGGSGQVQLVQSGSELKKPGESVKVSCKASGYTFTNYGMNWVRQAPGQGLKWMGWINTYTGESTYADDFKGRFAFSLDTSASTAYLQISSLKAEDTAVYFCARFAIKGDYWGQGTLVTVSS
light: DIQMTQSPSSVSASVGDRVTITCRASQGISSWLAWYQQKPGKAPKLLIYAASSLQSGVPSRFSGSGSGTDFTLTISSLQPEDFATYYCLQANSFPPTFGGGTKVEIKRTVAAPSVFIFPPSDEQLKSGTASVVCLLNNFYPREAKVQWKVDNALQSGNSQESVTEQDSKDSTYSLSSTLTLSKADYEKHKVYACEVTHQGLSSPVTKSFNRGEC
notes: Anti-c-Met Fab / tandem Fc / anti-EpCAM scFv TFcBA; also called Antibody #4
On to B3, for which the Kd was found to be 19.4 nM and the koff was found to be 0.00174 s⁻¹.
